{"source": "the DeepSol protein solubility set"}
{"test": "soluble on expression in E. coli; label from the status in PepcDB or PDB records"}
{"sequence": "MLALSRGRYLARPAAGLEDLRRAQELRWLAFHARRAGSGASGLDADRFDGACSHMLIEEAESGALVGCFRFLTFASGREIGRSYSAQFYELSALEGFAGPMVEMGRFCIHPDRRDPDILRVAWGALTQHVDRAGIEMLFGCSSFHGTEPEAYLDTFAMLKERHLAPPRWLPRVKAASVYRFAQRLARREPDARRAMLQMPPLLRTYLMMGGWVSDHAVVDREMDTLHVFTGLEIGAIPARRARALRAVAG", "soluble on expression in E. coli": "not soluble"}
{"sequence": "MVVSYSDSTPFGERISDSLKETQKLHTMQLNLGKVCNLACRHCHVEAGPNRREQMSQEVMKKALELFVRHGFETLDITGGAPEMNPHFEWLIHEGSKVASRLIVRTNLVILKESPWEHLAEFYAKHKVELVASLPEVSEEEVDRVRGRGVYGDSIEVIKRLNALGYGKNPDLKLDFVYNPSGPFLPPRVMELERLYKEQLFEKEEIFFHRLLSMNNIPIGRFRDSLERSGELLEYETLLRTHFNPSATPHLMCRSQISVSYEGRIYDCDFNQMLSLEAQGAKSLEEMLIQKSLKRRVVFGEHCYACTAGLGSSCQGVIAPEPL", "soluble on expression in E. coli": "not soluble"}
{"sequence": "MSLNRPEADREALWKIVHDRCEFGYRRTGAYAPCTFVDEQSGTALYKADFDPYQFLLIPLARITGIEDPALRESAGRNYLYDAWAARFLVTARLNNSLPESDVVLTINPKNARTQDQLHIHISCSSPTTSAALRNVDTSEYVGWKQLPIDLGGRRFQGLAVDTKAFESRNLFRDIYLKVTADGKKMENASIAVANVAQDQFLLLLAEGTEDQPVAAETLQDHDCSITKSEGHHHHHH", "soluble on expression in E. coli": "not soluble"}
{"sequence": "MKHLSPERLHVTQTAGITQLSPVNGRLYTLTHSDTTGALFLTVSRAFVTDQLTSQRDEVLGEWKQAGQQLVLFLYVFIGNRQMGRQENARRANVFKKELPLALEAIRYGDRAFFHTYPFCDWCPIFIHFTSEYPELNRTEYYGTPYLYR", "soluble on expression in E. coli": "not soluble"}
{"sequence": "MGHHHHHHSHMASSTSLPAPGSRPKKPLGKMADWFRQTLLKKPKKRPNSPESTSSDASQPTSQDNPLPPSLSSVTSPSLPPTHASDSGSSRWSKDYDVCVCHSEEDLVAAQDLVSYLEGSTASLRCFLQLRDATPGGAIVSELCQALSSSHCRVLLITPGFLQDPWCKYQMLQALTEAPGAEGCTIPLLSGLSRAAYPPELRFMYYVDGRGPDGGFRQVKEAVMRCKLLQEGEGERDSATVSDLL", "soluble on expression in E. coli": "soluble"}
{"sequence": "SAYIHIPFCEHICHYCDFNKYFIQSQPVDEYLNALEQEMINTIAKTGQPDLKTIFIGGGTPTSLSEEQLKKLMDMINRVLKPSSDLSEFAVDANPDDLSAEKLKILKEAGVNRLSFGVQTFEDDLLEKIGRVHKQKDVFTSFERAREIGFENISLDLMFGLPGQTLKHLEHSINTALSLDAEHYSVYSLIVEPKTVFYNLMQKGRLHLPPQEQEAEMYEIVMSKMEAHGIHQYEISNFAKAGMESKHNLTYWSNEQYFGFGAGAHGYIGGTRTVNVGPVKHYIDLIAEKGFPYRDTHEVTTEEQIEEEMFLGLRKTAGVSKKRFAEKYGRSLDGLFPSVLKDLAEKGLIHNSES", "soluble on expression in E. coli": "not soluble"}
{"sequence": "MSRPRAKLTGNFPGCPVESALSFLDGKWKGVILYHLINEGTLRFNELRRHIPSVTQRMLTKQLRELEEAGLISRTVFPVVPPRVDYALTPLGETMRPVISALKSWGDAHVVCKNGEKYTRAPTVAEKAA", "soluble on expression in E. coli": "not soluble"}
{"sequence": "MSLDWDSVHVPGPHAMTIQELVDYVNARQKQGIYEEYEDIRRENPVGTFHCSMSPGNLEKNRYGDVPCLDQTRVKLTKRSGHTQTDYINASFMDGYKQKNAYIGTQGPLENTYRDFWLMVWEQKVLVIVMTTRFEEGGRRKCGQYWPLEKDSRIRFGFLTVTNLGVENMNHYKKTTLEIHNTEERQKRQVTHFQFLSWPDYGVPSSAASLIDFLRVVRNQQSLAVSNMGARSKGQCPEPPIVVHCSAGIGRTGTFCSLDICLAQLEELGTLNVFQTVSRMRTQRAFSIQTPEQYYFCYKAILEFAEKEGMVSSGQNLLAVESQEGHHHHHH", "soluble on expression in E. coli": "soluble"}
{"sequence": "MGSDKIHHHHHHMAGKLFIVILTPVCNGNCLYCGGYDEGLMPPKIQYPLESLKKIADGNSVAFYGGEPLLEMEKMKEIMDSVKAEHFILQTNGLKLNRLEDEYIRRFSTILVSFDGRREVHDLYRGNYERVLENVLNVRRKGFEGELIARMVASQETDIYEDVMHILNLDCFTHVHWQIDAVWSSDGVWRDFERWVERYNAGVRKLVKFWASELRKGVLHGLVPFMGVATAIFKPFTHPPCSSGFESFAIATDGRILACPICPDLDWNEVGSLDEGIKRRLEILEPCLSCSYFRFCGGRCVFFNRERLWGDRGFRLVCSTVKNLVDSILACKHLILANKEKIMYPRFLNTTEIIP", "soluble on expression in E. coli": "not soluble"}
{"sequence": "MSPENKICMEQSEDGDLDAGDELFEEVDGDGKGEIFANRELLNIDHVPDENRIVGRDEHITELANEIGPAVTGSPPNSVILYGKTGSGKSLVANHVMERARREAQRRDRRLATVTVDCAQSRGEADTVQTIADKINRSTSGVTVPTRGISTNEYYNRLWQILGTEYDAALITLDEVDRLSDDDILMILSRAREAGKVDVPIGIISISNKVNFREQMTERVKSSLGHNEMIFDPYDGEQLRQILENRKDAFQEDILMPGVIPKTAALAAQRHGDARKAIRLLRHAGDYAKTNNIGTVKESHLELAQEQAEVERLKELISGLPPHSKYVLYALANLTDGTTNSNDWFRTTVIYDVYEEVCKTEATDTLTTDTIRGLLNELAFLEITESNQEHGGMGKGTYKEHRLLWDPNVVFKMNPGSAQVDTDR", "soluble on expression in E. coli": "not soluble"}
{"sequence": "MTTVRQRIDTQHRDAIHDAQLNIYGSRLATCGSDRLVKIFEVRPNGQSYPMAELVGHSGPVWKVSWAHPKYGGLLASASYDKKVIIWNEQQGRWQKAYEWAAHEASTTCVAFAPHQYGLMLASASADGDIGILRYDNSSNEWISSKIQKCHEQGVNSVCWAPGSADPAAKKRLVSAGNDKNVKIWAFDDATNEWILEKTLAGHTDFVREAAWCPVTNNGQHTIVSCGMEGNLVLFRTSNIETEEWKAKLLETAPCALYHSSFSPCGSFLSVAGDDNVITIWRENLQGQWIKVPRDNKEREGMSQAVGAPGAQR", "soluble on expression in E. coli": "not soluble"}
{"sequence": "SKFIAKQSVGAEVIDTPRTEEEAWLLNTVEAQARQWNLKTPEVAIYHSPEPNAFATGASRNSSLIAVSTGLLDHMTRDEVEAVLAHEMAHVGNGDM", "soluble on expression in E. coli": "not soluble"}
{"sequence": "MEAASIAVPGAGASLRAQALDALMTPAWADKLAAVAAIDAGAPVGAQQDLAEPAGLLGRPPAPQLVPPSQVRQRSVQSPEGRAALLHALAHIEFNAINLALDAVWRYGGLPDAYYLDWLKVAREEAYHFDLLNRHLSGLGHAYGDFPAHNGLWEMAEKTRADLLARLALVPRTLEARGLDASPLIRDKLAAAGDADGAAILEIILRDEIGHVAIGNHWYKALCAQRGLDPVAQYAQLASRYGAPRLRGPFNLEARRAAGFDEDELRALLQALEHHHHHH", "soluble on expression in E. coli": "not soluble"}
{"sequence": "MQIRNSHLYSASRLVQNTFNASSTKEAANTIAKNNESAALSATQTARTHEGDSKGKSSNGSRSHLRSMRYAAYLAGSAYLYDKTVNDFFLSTTSLNDGKQGFTSDARLQKAEKKAEANYHAYHNRANFGGVAPTRSSLLPKLCGENLFVTMLDFRAATKVHMKNLIDTKEAHDSIANNISCIMGERVKPELLKKHGIVQTPPDFDITKGASYDCKNKYSLSGVPNQETGSYGYASRSVSNPFIEKGENHHARAINSERALTPRNCVDALQPLLQKSERLSPEAQFRAGQALLILRPLYCSSENWGDAHKVLMPFLEKKGLVSSQENQKLGATRPFTQTDMEKGIARRNTSLAGPTLNKLNIFLQKSIYNKDEKAISDLTAKKLGEMKYIPIAHFKMNEDVSSFEDSSGLADSFTGYNVSAYINHARLLSGEDRLSKKDVIAIVGCLNAIYDNASSERHTLREIAHGCFVGAGYTVEDAEDFYNDACKAAATEFYGGRAINVQSQLYSSSVDKPDS", "soluble on expression in E. coli": "not soluble"}
{"sequence": "EVQLLESGGGLVQPGGSLRLSCAASGFTFEEYAMLWVRQAPGKGLEWVSGINARGYTTYYADSVKGRFTISRDNSKNTLYLQMNSLRTEDTAVYYCAKPWYPFMASKGSEFDYWGQGTLVTVSSAAALEIKRASQPELAPEDPEDVEHHHHHH", "soluble on expression in E. coli": "soluble"}
{"sequence": "MTEPIFMVGARGCGMTTVGRELARALGYEFVDTDIFMQHTSGMTVADVVAAEGWPGFRRRESEALQAVATPNRVVATGGGMVLLEQNRQFMRAHGTVVYLFAPAEELALRLQASLQAHQRPTLTGRPIAEEMEAVLREREALYQDVAHYVVDATQPPAAIVCELMQTMRLPAA", "soluble on expression in E. coli": "soluble"}
